Assay results taken from article PMC3084761.

Target: ECFP-FKBP38 fusion protein (pECFP-C1-FKBP38), Q14318
Assay: FRET or BRET; live-cell confocal FRET of ECFP (donor) and EYFP (acceptor) fusions in HEK293 cells transfected 48 h; acceptor/donor plasmid ratios 1:1 to 5:1; FRET efficiency against A/D ratio fitted to a 1:1 binding model
Details: remark: other sources report otherwise

ECFP-FKBP38 fusion protein (pECFP-C1-FKBP38), Q14318, sequence (Q14318 whole entry, the tested form may be a part): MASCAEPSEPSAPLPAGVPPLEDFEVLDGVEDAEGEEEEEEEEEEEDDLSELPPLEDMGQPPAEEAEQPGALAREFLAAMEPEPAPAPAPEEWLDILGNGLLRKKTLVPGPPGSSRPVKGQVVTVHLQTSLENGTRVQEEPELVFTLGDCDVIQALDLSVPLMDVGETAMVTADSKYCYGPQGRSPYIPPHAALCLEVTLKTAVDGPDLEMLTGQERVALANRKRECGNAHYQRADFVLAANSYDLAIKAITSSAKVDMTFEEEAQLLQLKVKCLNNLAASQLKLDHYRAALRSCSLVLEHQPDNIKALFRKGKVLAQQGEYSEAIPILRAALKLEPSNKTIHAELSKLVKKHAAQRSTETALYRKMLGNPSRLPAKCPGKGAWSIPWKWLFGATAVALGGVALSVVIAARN

B1: PHD2-EYFP (PHD2 coding sequence in pEYFP-N1), Q9GZT9 1-426 (enzyme)
chain: MANDSGGPGGPSPSERDRQYCELCGKMENLLRCSRCRSSFYCCKEHQRQDWKKHKLVCQGSEGALGHGVGPHQHSGPAPPAAVPPPRAGAREPRKAAARRDNASGDAAKGKVKAKPPADPAAAASPCRAAAGGQGSAVAAEAEPGKEEPPARSSLFQEKANLYPPSNTPGDALSPGGGLRPNGQTKPLPALKLALEYIVPCMNKHGICVVDDFLGKETGQQIGDEVRALHDTGKFTDGQLVSQKSDSSKDIRGDKITWIEGKEPGCETIGLLMSSMDDLIRHCNGKLGSYKINGRTKAMVACYPGNGTGYVRHVDNPNGDGRCVTCIYYLNKDWDAKVSGGILRIFPEGKAQFADIEPKFDRLLFFWSDRRNPHEVQPAYATRYAITVWYFDADERARAKVKYLTGEKGVRVELNKPSDSVGKDVF
maximum FRET efficiency: > 20%
